These results are taken from PMC4917396.

Several values for one entry are separate records, joined by “and”; a condition that tells them apart may be missing. Equal values may be shown once.

The target of assay [1] is recombinant full-length murine amelogenin with an uncleavable N-terminal histidine tag (rp(H)M180) (mouse). As to the kind of experiment: in situ AFM with volume analysis of adsorbates.
Assay [2] has the same target. As to the kind of experiment: in situ AFM coverage with Hill fit.
Assay [3] has as its target recombinant full-length murine amelogenin without tag (rpM179) (mouse). Put plainly: in situ AFM with volume analysis of adsorbates.
The target is the same in assay [4]. As to the kind of experiment: DLS.
Assay [5] shares this target. Put plainly: in situ AFM with volume analysis of adsorbates. This is another data set of the same source.
The target is the same in assay [6]. Put plainly: in situ AFM with volume analysis of adsorbates. This is another data set of the same source.
Assay [7] shares this target. As to the kind of experiment: in situ AFM coverage with Hill fit.

For the substance “recombinant full-length murine amelogenin with an uncleavable N-terminal histidine tag (rp(H)M180) (natural protein)”, the stoichiometry N in assay [1] is 25 monomers. Moreover, the ln Ka in assay [2] was 76.2 Ka in M^-n.

Turning to “recombinant full-length murine amelogenin without tag (rpM179) (natural protein)”, the stoichiometry N was 150 monomers in assay [3]; 200 monomers in assay [4]; 100 monomers and 200 monomers in assay [5]; 25 monomers in assay [6]. Also, the ln Ka in assay [7] turned out to be 3.35 Ka in M^-n.
